Target: FAM-AIP-I, fluorescein-tagged AIP-I (Staphylococcus aureus (group I))
Test: fluorescence polarisation

AgrC-I^R238H, constitutively active full-length AgrC-I mutant, in nanodiscs (receptor)
Kd: 51 nM

From publication PMC5697745
